# Target: His×6-YY1(wt) (human, UniProt P25490 1-414)
# Test: SPR
binder,measurement,value
His×6-YY1(260–414) (domain or fragment) LPPGGIPGIDLSDPKQLAEFARMKPRKIKEDDAPRTIACPHKGCTKMFRDNSAMRKHLHTHGPRVHVCAECGKAFVESSKLKRHQLVHTGEKPFQCTFEGCGKRFSLDFNLRTHVRIHTGDRPYVCPFDGCNKKFAQSTNLKSHILTHAKAKNNQ,Kd,258 nM
